Laboratory results from patent publication US20120121591A1 (priority 2009, published 2012).
Where two headings read alike, the source gives them in different places. No end group written: not given here.

B1: Bivalent Fc-L10-ShK[1-35] homodimer (Fc fusion)
chain: GGGGSGGGGSRSCIDTIPKSRCTAFQCKHSMKYRLSFCRKTCGTC
modifications: not fully specified (N-terminus); ends and bridges not checked; also: homodimer via Fc

Experiments:
[1] = target: T1, human Kv1.3 (Homo sapiens, UniProt P22001); assay: cell-based or functional assay
T1 sequence (P22001 whole entry): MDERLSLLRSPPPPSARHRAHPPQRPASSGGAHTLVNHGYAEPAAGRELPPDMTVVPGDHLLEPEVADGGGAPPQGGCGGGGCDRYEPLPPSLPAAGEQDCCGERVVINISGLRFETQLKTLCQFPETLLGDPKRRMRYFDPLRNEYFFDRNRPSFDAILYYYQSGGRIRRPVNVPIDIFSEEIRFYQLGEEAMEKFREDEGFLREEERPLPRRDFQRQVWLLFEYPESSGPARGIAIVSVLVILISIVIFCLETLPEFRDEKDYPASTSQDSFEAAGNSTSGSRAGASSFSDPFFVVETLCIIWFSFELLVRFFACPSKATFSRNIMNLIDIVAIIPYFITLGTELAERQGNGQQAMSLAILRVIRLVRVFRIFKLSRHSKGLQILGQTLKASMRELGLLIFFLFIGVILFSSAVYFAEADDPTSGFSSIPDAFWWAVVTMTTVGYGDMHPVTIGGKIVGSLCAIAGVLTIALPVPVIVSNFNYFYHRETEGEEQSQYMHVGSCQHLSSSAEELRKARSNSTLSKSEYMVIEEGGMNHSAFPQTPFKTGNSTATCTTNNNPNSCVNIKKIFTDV

[2] = target: T2, human Kv1.1 (Homo sapiens, UniProt Q09470); assay: cell-based or functional assay
T2 sequence (Q09470 whole entry): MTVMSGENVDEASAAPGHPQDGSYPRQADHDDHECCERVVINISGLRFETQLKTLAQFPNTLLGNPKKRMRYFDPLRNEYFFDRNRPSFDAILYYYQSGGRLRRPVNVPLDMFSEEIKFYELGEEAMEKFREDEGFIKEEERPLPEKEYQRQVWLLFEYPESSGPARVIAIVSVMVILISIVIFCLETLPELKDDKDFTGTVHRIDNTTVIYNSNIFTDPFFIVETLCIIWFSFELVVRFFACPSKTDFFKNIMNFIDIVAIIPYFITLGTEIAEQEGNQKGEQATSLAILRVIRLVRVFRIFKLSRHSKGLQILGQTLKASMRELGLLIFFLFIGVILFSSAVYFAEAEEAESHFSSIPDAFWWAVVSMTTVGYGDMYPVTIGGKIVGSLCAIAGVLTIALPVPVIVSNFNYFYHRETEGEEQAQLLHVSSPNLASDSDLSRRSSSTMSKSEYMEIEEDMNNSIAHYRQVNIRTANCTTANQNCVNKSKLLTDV

[3] = target: T1, human Kv1.3; assay: cell-based or functional assay; remark: listed apart in the source
[4] = test system: IL-2 secretion from T cells in human whole blood; assay type: cell-based; conditions: read-out: WB (IL-2) IC50 (nM, Avg)
[5] = test system: IFN-g secretion from T cells in human whole blood; assay type: cell-based; conditions: read-out: WB (IFNg) IC50 (nM, Avg)
[6] = target: hKv1.3 (Homo sapiens, UniProt P22001); assay: cell-based; assay type: cell-based; conditions: Kv1.3 (IWQ) IC50 (nM, Avg)
Chain of hKv1.3 (P22001 whole entry): as the sequence (P22001 whole entry) above

[7] = target: T2, human Kv1.1; assay: cell-based or functional assay; remark: listed apart in the source

Molecule | Kv1.3 (IWQ) IC50 [1] | WB (IFNg) IC50 [1] | WB (IL-2) IC50 [1] | also measured
[1-Nal18]ShK (peptide) | 471 pM | 375 pM | 419 pM | –
[Nle21]ShK (peptide) | 40 pM | 303 pM | 153 pM | Kv1.1 (IWQ) IC50 [2]: 15 pM
[1-Nal2]ShK (peptide) | 250 pM | 258 pM | 223 pM | –
[1-Nal21]ShK (peptide) | 669 pM | 8130 pM | 6590 pM | –
[1-Nal25]ShK (peptide) | 106 pM | 84 pM | 61 pM | –
[1-Nal7]ShK (peptide) | 699 pM | 18000 pM | 11600 pM | –
Fc.L20.FcLoop(ShK) (Fc fusion) | – | – | – | In vitro whole blood assay (inhibition of IL-2) IC50 [1]: 2010 pM
[1-Nal27]ShK (peptide) | 144 pM | 2840 pM | 1070 pM | –
[1-Nal11]ShK (peptide) | 922 pM | 1640 pM | 1140 pM | –
[1-Nal15]ShK (peptide) | 72 pM | 291 pM | 184 pM | Kv1.1 (IWQ) IC50 [2]: 9 pM
FcLoop(ShK).L25.Fc (Fc fusion) | – | – | – | In vitro whole blood assay (inhibition of IL-2) IC50 [1]: 1910 pM
[1-Nal4]ShK (peptide) | 150 pM | 317 pM | 274 pM | –
[1-Nal16]ShK (peptide) | 699 pM | 9550 pM | 28900 pM | –
[1-Nal34]ShK (peptide) | 77 pM | 63 pM | 18 pM | –
[1-Nal29]ShK (peptide) | – | 8080 pM | 4720 pM | –
20kDaPEG-[1-Nal16]ShK (peptide) | 39100 pM | 100000 pM | 100000 pM | –
[1-Nal5]ShK (peptide) | – | 31900 pM | 70400 pM | –
[1-Nal19]ShK (peptide) | 277 pM | 255 pM | 153 pM | Kv1.1 (IWQ) IC50 [2]: 1 pM
[Dab16]ShK (peptide) | 82 pM | – | 86 pM | –

Molecule | Kv1.3 (IWQ) IC50 [1] | WB (IFNg) IC50 [1] | WB (IL-2) IC50 [1] | also measured
[1-Nal26]ShK (peptide) | 352 pM | 573 pM | 357 pM | –
HmK (peptide) | 900 pM | 1200 pM | 850 pM | Kv1.1 (IWQ) IC50 [2]: 15 pM
[1-Nal31]ShK (peptide) | – | – | – | Kv1.1 (IWQ) IC50 [2]: 4 pM
[1-Nal1]ShK (peptide) | 225 pM | 247 pM | 222 pM | Kv1.1 (IWQ) IC50 [2]: 5 pM
FcLoopShk/FcLoopShk (bivalent Fc) (Fc fusion) | – | – | – | In vitro whole blood assay (inhibition of IL-2) IC50 [1]: 2000 pM
[1-Nal6]ShK (peptide) | 150 pM | 962 pM | 860 pM | –
[1-Nal10]ShK (peptide) | 206 pM | 255 pM | 205 pM | –
Monovalent Fc/Fc-L10-ShK[2-35] heterodimer (Fc fusion) | – | – | – | WB (IFNg) IC50 [3]: 5200 pM; WB (IL-2) IC50 [3]: 2150 pM
[1-Nal23]ShK (peptide) | 3300 pM | 100000 pM | 100000 pM | Kv1.1 (IWQ) IC50 [2]: 3300 pM
CC[C@H](C)[C@@H]1NC(=O)[C@@H](NC(=O)[C@H](CO)NC(=O)[C@@H](N)Cc2cccc3ccccc23)CSSC[C@@H](C(=O)O)NC(=O)[C@H]([C@@H](C)O)NC(=O)CNC(=O)[C@@H]2CSSC[C@@H]3NC(=O)[C@H](CCC(N)=O)NC(=O)[C@H](Cc4ccccc4)NC(=O)[C@H](C)NC(=O)[C@H]([C@@H](C)O)NC(=O)[C@H](CSSC[C@H](NC(=O)[C@H](Cc4ccccc4)NC(=O)[C@H](CO)NC(=O)[C@H](CC(C)C)NC(=O)[C@H](CCCNC(=N)N)NC(=O)[C@H](Cc4ccc(O)cc4)NC(=O)[C@H](CCCCN)NC(=O)[C@H](CCSC)NC(=O)[C@H](CO)NC(=O)[C@H](Cc4c[nH]cn4)NC(=O)[C@H](CCCCN)NC3=O)C(=O)N[C@@H](CCCNC(=N)N)C(=O)N[C@@H](CCCCN)C(=O)N[C@@H]([C@@H](C)O)C(=O)N2)NC(=O)[C@H](CCCNC(=N)N)NC(=O)[C@H](CO)NC(=O)[C@H](CCCCN)NC(=O)[C@@H]2CCCN2C(=O)[C@H]([C@@H](C)CC)NC(=O)[C@H]([C@@H](C)O)NC(=O)[C@H](CC(=O)O)NC1=O [[1-Nal1]ShK] | – | – | – | IC50 [4]: 0.222 nM; IC50 [5]: 0.247 nM; IC50 [6]: 0.225 nM
CC[C@H](C)[C@@H]1NC(=O)[C@@H](NC(=O)[C@H](CO)NC(=O)[C@@H](N)CCCNC(=N)N)CSSC[C@@H](C(N)=O)NC(=O)[C@H]([C@@H](C)O)NC(=O)CNC(=O)[C@@H]2CSSC[C@@H]3NC(=O)[C@H](CCCCN)NC(=O)[C@H](Cc4ccccc4)NC(=O)[C@H](C)NC(=O)[C@H]([C@@H](C)O)NC(=O)[C@H](CSSC[C@H](NC(=O)[C@H](Cc4ccc(O)cc4)NC(=O)[C@H](CO)NC(=O)[C@H](CC(C)C)NC(=O)[C@H](CCCNC(=N)N)NC(=O)[C@H](Cc4ccc(O)cc4)NC(=O)[C@H](CCCCN)NC(=O)[C@H](CCSC)NC(=O)[C@H](CO)NC(=O)[C@H](Cc4c[nH]cn4)NC(=O)[C@H](CCCCN)NC3=O)C(=O)N[C@@H](CCCCN)C(=O)N[C@@H](CCCCN)C(=O)N[C@@H]([C@@H](C)O)C(=O)N2)NC(=O)[C@H](CCCNC(=N)N)NC(=O)[C@H](CO)NC(=O)[C@H](CCCCN)NC(=O)[C@@H]2CCCN2C(=O)[C@H]([C@@H](C)CC)NC(=O)[C@H]([C@@H](C)O)NC(=O)[C@H](CC(=O)O)NC1=O [[Lys16,29;Tyr27]ShK-amide] | – | – | – | IC50 [4]: 0.738 nM; IC50 [5]: 1.17 nM; IC50 [6]: 0.042 nM
CC[C@H](C)[C@@H]1NC(=O)[C@@H](NC(=O)[C@H](CO)NC(=O)[C@@H](N)CCCNC(=N)N)CSSC[C@@H](C(=O)O)NC(=O)[C@H]([C@@H](C)O)NC(=O)CNC(=O)[C@@H]2CSSC[C@@H]3NC(=O)[C@H](CCC(N)=O)NC(=O)[C@H](Cc4ccccc4)NC(=O)[C@H](C)NC(=O)[C@H]([C@@H](C)O)NC(=O)[C@H](CSSC[C@H](NC(=O)[C@H](Cc4ccccc4)NC(=O)[C@H](CO)NC(=O)[C@H](CC(C)C)NC(=O)[C@H](CCCNC(=N)N)NC(=O)[C@H](Cc4ccc(O)cc4)NC(=O)[C@H](CCCCN)NC(=O)[C@H](CCSC)NC(=O)[C@H](CO)NC(=O)[C@H](Cc4c[nH]cn4)NC(=O)[C@H](CCCCN)NC3=O)C(=O)N[C@@H](CCCNC(=N)N)C(=O)N[C@@H](CCCCN)C(=O)N[C@@H]([C@@H](C)O)C(=O)N2)NC(=O)[C@H](CCCNC(=N)N)NC(=O)[C@H](CO)NC(=O)[C@H](CCCCN)NC(=O)[C@@H]2CCCN2C(=O)[C@H]([C@@H](C)CC)NC(=O)[C@H](Cc2cccc3ccccc23)NC(=O)[C@H](CC(=O)O)NC1=O [[1-Nal6]ShK] | – | – | – | IC50 [4]: 0.86 nM; IC50 [5]: 0.962 nM; IC50 [6]: 0.15 nM
[1-Nal14]ShK (peptide) | – | 110 pM | 89 pM | –
30kDaPEG-ShK (peptide) | 1930 pM | 2420 pM | 372 pM | Kv1.1 (IWQ) IC50 [2]: 182 pM
CC[C@H](C)[C@@H]1NC(=O)[C@@H](NC(=O)[C@H](CO)NC(=O)[C@@H](N)CCCNC(=N)N)CSSC[C@@H](C(=O)O)NC(=O)[C@H]([C@@H](C)O)NC(=O)CNC(=O)[C@@H]2CSSC[C@@H]3NC(=O)[C@H](CCC(N)=O)NC(=O)[C@H](Cc4ccccc4)NC(=O)[C@H](C)NC(=O)[C@H]([C@@H](C)O)NC(=O)[C@H](CSSC[C@H](NC(=O)[C@H](Cc4ccccc4)NC(=O)[C@H](CO)NC(=O)[C@H](CC(C)C)NC(=O)[C@H](CCCNC(=N)N)NC(=O)[C@H](Cc4ccc(O)cc4)NC(=O)[C@H](CCCCN)NC(=O)[C@H](CCCCN)NC(=O)[C@H](CO)NC(=O)[C@H](Cc4c[nH]cn4)NC(=O)[C@H](CCCCN)NC3=O)C(=O)N[C@@H](CCCNC(=N)N)C(=O)N[C@@H](CCCCN)C(=O)N[C@@H]([C@@H](C)O)C(=O)N2)NC(=O)[C@H](CCCNC(=N)N)NC(=O)[C@H](CO)NC(=O)[C@H](CCCCN)NC(=O)[C@@H]2CCCN2C(=O)[C@H]([C@@H](C)CC)NC(=O)[C@H]([C@@H](C)O)NC(=O)[C@H](CC(=O)O)NC1=O [[Lys21]ShK] | – | – | – | IC50 [4]: 3.59 nM; IC50 [5]: 4.82 nM; IC50 [6]: 0.822 nM
[1-Nal20]ShK (peptide) | 2110 pM | 100000 pM | 100000 pM | –
CC[C@H](C)[C@@H]1NC(=O)[C@@H](NC(=O)[C@H](CO)NC(=O)[C@@H](N)CCCNC(=N)N)CSSC[C@@H](C(=O)O)NC(=O)[C@H]([C@@H](C)O)NC(=O)CNC(=O)[C@@H]2CSSC[C@@H]3NC(=O)[C@H](CCC(N)=O)NC(=O)[C@H](Cc4ccccc4)NC(=O)[C@H](C)NC(=O)[C@H]([C@@H](C)O)NC(=O)[C@H](CSSC[C@H](NC(=O)[C@H](Cc4ccccc4)NC(=O)[C@H](CO)NC(=O)[C@H](CC(C)C)NC(=O)[C@H](CCCNC(=N)N)NC(=O)[C@H](Cc4ccc(O)cc4)NC(=O)[C@H](CCCCN)NC(=O)[C@H](CCSC)NC(=O)[C@H](CO)NC(=O)[C@H](C)NC(=O)[C@H](CCCCN)NC3=O)C(=O)N[C@@H](CCCNC(=N)N)C(=O)N[C@@H](CCCCN)C(=O)N[C@@H]([C@@H](C)O)C(=O)N2)NC(=O)[C@H](CCCNC(=N)N)NC(=O)[C@H](CO)NC(=O)[C@H](CCCCN)NC(=O)[C@@H]2CCCN2C(=O)[C@H]([C@@H](C)CC)NC(=O)[C@H]([C@@H](C)O)NC(=O)[C@H](CC(=O)O)NC1=O [[Ala19]ShK] | – | – | – | IC50 [4]: 0.379 nM; IC50 [5]: 0.472 nM; IC50 [6]: 0.237 nM
B1 | – | – | – | Kv1.3 IC50 (whole cell patch clamp) [3]: 15 pM; WB (IFNg) IC50 [3]: 320 pM; WB (IL-2) IC50 [3]: 386 pM; Kv1.1 IC50 (whole cell patch clamp) [7]: 67 pM
